This passage reports self-cleavage results from the RNAGym collection of RNA variant scans (doi:10.7554/elife.80360).

To fix the notation:
B1: Hairpin Ribozyme (parent)
chain: GUCCUCUUUCACGUGCGCGUGAAAGAGAGAAGUGAACCAGAGAAACACACGUUGUGGUAUAUUACCUGGUA

In this series the parent is B1. Kind of series: self-cleavage, relative activity (ratio to wild type); higher = more cleavage; co-transcriptional.
On to AUCCUCUUUCACGUGCGCGUGAAAGAGAGAAGUGAACCAGAGAAACACACGUUGUGGUAUAUUACGUGGUA [G1A C66G], for which the self-cleavage was determined as 0.225.

For AUCCUCUUUCACGUGCGCGUGAAAGAGAGAAGUGAACCAGAGAAACACAAGUUGUGGUAUAUUACCUGGUA [G1A C50A], the self-cleavage turned out to be 0.127. As for AUCCUCUUUCACGUGCGCGUGAAAGAGAGAAGUGAACCAGAGAAACACAGGUUGUGGUAUAUUACCUGGUA [G1A C50G], the figure is 0.277. On to CUCCUCUUUCACGUACGCGUGAAAGAGAGAAGUGAACCAGAGAAACACACGUUGUGGUAUAUUACCUGGUA [G1C G15A], for which the self-cleavage worked out at 0.184. As for CUCCUCUUUCACGUGCGCGUGAAAGAGAGAAGUGGACCAGAGAAACACACGUUGUGGUAUAUUACCUGGUA [G1C A35G], the self-cleavage was 0.121. For AUCCUCUUUCACGUGCGCGAGAAAGAGAGAAGUGAACCAGAGAAACACACGUUGUGGUAUAUUACCUGGUA [G1A U20A], the self-cleavage was 0.213. As for CUCCUCUUUGACGUGCGCGUGAAAGAGAGAAGUGAACCAGAGAAACACACGUUGUGGUAUAUUACCUGGUA [G1C C10G], the self-cleavage amounted to 0.247. As to CUCCUCUUUUACGUGCGCGUGAAAGAGAGAAGUGAACCAGAGAAACACACGUUGUGGUAUAUUACCUGGUA [G1C C10U], the self-cleavage was determined as 0.241.

Consider AUCCUCUUUCACGUGCGCGUGAAAGAGAGAAAUGAACCAGAGAAACACACGUUGUGGUAUAUUACCUGGUA [G1A G32A], for which the self-cleavage was 0.196. Regarding AUCCUCUUUCACGUGCGCGUGAAAGAGAGAAUUGAACCAGAGAAACACACGUUGUGGUAUAUUACCUGGUA [G1A G32U], the self-cleavage was determined as 0.184. Turning to AUCCUCUUUCACGUGCGCGUGAAAGAGAGAAGGGAACCAGAGAAACACACGUUGUGGUAUAUUACCUGGUA [G1A U33G], the self-cleavage was determined as 0.119.

Consider CUCCUCUUUCACGUGCGCGUUAAAGAGAGAAGUGAACCAGAGAAACACACGUUGUGGUAUAUUACCUGGUA [G1C G21U], for which the self-cleavage was determined as 0.274. As for CUCCUCUUUCACGUGCGCGUAAAAGAGAGAAGUGAACCAGAGAAACACACGUUGUGGUAUAUUACCUGGUA [G1C G21A], the figure is 0.109; as for AUCCUCUUUCACGUGCGCGUGAAACAGAGAAGUGAACCAGAGAAACACACGUUGUGGUAUAUUACCUGGUA [G1A G25C], 0.209; as for CUCCUCUUUCACGUGCGCGUGAAAGCGAGAAGUGAACCAGAGAAACACACGUUGUGGUAUAUUACCUGGUA [G1C A26C], 0.14. As for CUCCUCUUUCACGUGCGCGUGAAAGGGAGAAGUGAACCAGAGAAACACACGUUGUGGUAUAUUACCUGGUA [G1C A26G], the self-cleavage was determined as 0.239. For CUCCUCUUUCACGUGCGCGUGAAGGAGAGAAGUGAACCAGAGAAACACACGUUGUGGUAUAUUACCUGGUA [G1C A24G], the self-cleavage is 0.129.

Turning to CUCCUCUUUCACGUGCGCGUGAAACAGAGAAGUGAACCAGAGAAACACACGUUGUGGUAUAUUACCUGGUA [G1C G25C], the self-cleavage amounted to 0.159. Consider CUCCUCUUUCACGUGCGCGUGAAAAAGAGAAGUGAACCAGAGAAACACACGUUGUGGUAUAUUACCUGGUA [G1C G25A], for which the self-cleavage was determined as 0.154. As for CUCCUCUUUCACGUGCGCGUGAAAGAAAGAAGUGAACCAGAGAAACACACGUUGUGGUAUAUUACCUGGUA [G1C G27A], the self-cleavage was found to be 0.16.

Turning to AUCCUCUUUCACGUGCGCGUGAAAGAGAGAAGUGAACCAGAGAAACACACGUUGUCGUAUAUUACCUGGUA [G1A G56C], the self-cleavage was found to be 0.282. Consider AUCCUCUUUCACGUGCGCGUGAAAGAGAGAAGUGAACCAGAGAAACACACGUUGUUGUAUAUUACCUGGUA [G1A G56U], for which the self-cleavage came out at 0.0996.

Take CUCCUCUUUCACGUGCGCGUGAAAGAGAGAAGUGAACCAGAGACACACACGUUGUGGUAUAUUACCUGGUA [G1C A44C]: the self-cleavage worked out at 0.125.

Consider CUCCUCUUUCACGUGCGCGUGAAAGAGAGAAGUGAAUCAGAGAAACACACGUUGUGGUAUAUUACCUGGUA [G1C C37U], for which the self-cleavage amounted to 0.177. Take AUCCUCUUUCACGUGCGCGUGAAAGAGAGAAGUGAACCAGAGAAACACACGGUGUGGUAUAUUACCUGGUA [G1A U52G]: the self-cleavage worked out at 0.0884. Regarding CUCCUCUUUCACGUGCGCGUGAAAGAGAGAAGUGAACCAGAGAAACACACGUUGUGGUAUAUUACCUGGUA [G1C], the self-cleavage is 0.203. With AUCCUCUUUCACGUGCGCGUGAAAGAGAGAAGUGAACCAGAGAAACAGACGUUGUGGUAUAUUACCUGGUA [G1A C48G], the self-cleavage came out at 0.201. For the variant CUCCUCUUUCACGUGCGCGUGAAAGAGACAAGUGAACCAGAGAAACACACGUUGUGGUAUAUUACCUGGUA [G1C G29C], the self-cleavage worked out at 0.203. Turning to AUCCUCUUUCACGUGCGCGUGAAAGAGAGAAGUGAACCAGAGAAACACACGUUCUGGUAUAUUACCUGGUA [G1A G54C], the self-cleavage was determined as 0.193.

Regarding AUCCUCUUUCACGUGCGCGUGAAAGAGAGAAGUUAACCAGAGAAACACACGUUGUGGUAUAUUACCUGGUA [G1A G34U], the self-cleavage is 0.189.

Consider AUCCUCUUUCACGUGCGCGUGAAAGAGAGAAGUCAACCAGAGAAACACACGUUGUGGUAUAUUACCUGGUA [G1A G34C], for which the self-cleavage came to 0.09.

For the variant CUCCUCUUUCACGUGCGCGUGAAAGAGAGAAGUGAGCCAGAGAAACACACGUUGUGGUAUAUUACCUGGUA [G1C A36G], the self-cleavage stood at 0.105. The result for CUCCUCUUUCACGUGCGCGUGAAAGAGAGAAGUGACCCAGAGAAACACACGUUGUGGUAUAUUACCUGGUA [G1C A36C] reads 0.107.

As to AUCCUCUUUCACGUGCGCGUGAAAGACAGAAGUGAACCAGAGAAACACACGUUGUGGUAUAUUACCUGGUA [G1A G27C], the self-cleavage was determined as 0.213. For the variant CUCCUCUUUCACGUGCGCGUGAAAGAGAGAAGUGAACUAGAGAAACACACGUUGUGGUAUAUUACCUGGUA [G1C C38U], the self-cleavage was found to be 0.198. Consider CUCCUCUUUCACGUGCACGUGAAAGAGAGAAGUGAACCAGAGAAACACACGUUGUGGUAUAUUACCUGGUA [G1C G17A], for which the self-cleavage is 0.232. For the variant CUCCUCUUUCACGUGCCCGUGAAAGAGAGAAGUGAACCAGAGAAACACACGUUGUGGUAUAUUACCUGGUA [G1C G17C], the self-cleavage turned out to be 0.295. Regarding AUCCUCUUUCACGUGCGCGUGAAAGAGAGAAGUGAACCAGAGAAAGACACGUUGUGGUAUAUUACCUGGUA [G1A C46G], the self-cleavage was 0.104.
